Laboratory results as given in patent US20110027284A1 (Novartis, published 2011).

T1: recombinant human NiG (human, UniProt Q9NQC3 186-1004)
T1 construct: Recombinant fragment, amine-coupled to a CM5 chip; also called hNiG; human NiG-fragment of NogoA
T1 sequence: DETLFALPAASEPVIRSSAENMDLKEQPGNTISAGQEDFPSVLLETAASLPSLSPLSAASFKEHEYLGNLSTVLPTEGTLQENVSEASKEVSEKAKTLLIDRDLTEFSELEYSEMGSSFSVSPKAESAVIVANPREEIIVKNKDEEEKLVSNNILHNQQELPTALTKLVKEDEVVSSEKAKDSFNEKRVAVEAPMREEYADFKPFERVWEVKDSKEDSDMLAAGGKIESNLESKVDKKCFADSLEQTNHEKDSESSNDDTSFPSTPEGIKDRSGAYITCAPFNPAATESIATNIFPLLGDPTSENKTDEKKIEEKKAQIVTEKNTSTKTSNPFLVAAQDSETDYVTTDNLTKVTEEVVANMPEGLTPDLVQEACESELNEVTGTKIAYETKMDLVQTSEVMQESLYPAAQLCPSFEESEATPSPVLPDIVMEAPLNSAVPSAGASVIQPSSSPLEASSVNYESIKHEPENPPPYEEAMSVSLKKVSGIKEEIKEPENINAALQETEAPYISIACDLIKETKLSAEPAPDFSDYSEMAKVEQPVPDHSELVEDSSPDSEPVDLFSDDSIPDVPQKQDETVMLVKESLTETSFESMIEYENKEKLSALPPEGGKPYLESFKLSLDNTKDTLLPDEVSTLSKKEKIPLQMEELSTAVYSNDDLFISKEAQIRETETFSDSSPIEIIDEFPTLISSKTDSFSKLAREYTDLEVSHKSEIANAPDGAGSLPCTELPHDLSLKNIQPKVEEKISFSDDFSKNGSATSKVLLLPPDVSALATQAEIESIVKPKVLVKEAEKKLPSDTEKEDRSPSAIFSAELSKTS

B1: 6A3-IgG4 mAb (antibody, V domains shown)
VH: EVQLVESGGGLVQPGGSLRLSCAASGFTFSNYWMSWVRQAPGKGLEWVATIKQDGSQKNYVDSVKGRFTISRDNAKNSLYLRLNSLRAEDTAVYYCATELFDLWGRGSLVTVSS
VL: EIVLTQSPATLSLSPGERATLSCRASQSVSSYLAWYQQKPGQAPRLLIYDASNRATGIPARFSGSGSGTDFTLTISSLEPEDFAVYYCQQRSNWPITFGQGTKLEIKR
notes: Recombinant human IgG4/kappa made in SP2/0 cells; also called 6A3-Ig4; 6A3-Ab
B2: 6A3 Fab monovalent fragment with his-tag (Fab, V domains shown, not shown: a dimerising Fc or GST; small tags and cut ends)
VH: B1 VH
VL: EIVLTQSPATLSLSPGERATLSCRASQSVSSYLAWYQQKPGQAPRLLIYDASNRATGIPARFSGSGSGTDFTLTISSLEPEDFAVYYCQQRSNWPITFGQGTRLEIK
modifications: A his-tag is present, but its chain and position are not stated, so it is left out.
notes: Made in E. coli; also called 6A3 derived monovalent Fab fragment; copies: 1 + 1

Biological target: T1, recombinant human NiG
Experiment: SPR (BIAcore), recombinant human NiG immobilised on a CM5 chip
Description: The affinity of the mouse 6A3-IgG1 mAb, 6A3-IgG4 mAb, and of the 6A3 Fab were measured by surface plasmon resonance (SPR) using a BIAcore 2000 optical biosensor (Biacore, Uppsala, Sweden) according to the manufacture's instructions. Recombinant human NIG was covalently immobilized on a flow cell of a CM5 sensor chip using amine-coupling chemistry. Briefly; the carboxymethlyladed dextran matrix was activated by injecting 35 μl of a solution containing 0.025M NHS and 0.1M EDC. […] The deactivation of the remaining NHS-ester group was performed by injection of 35 μl of 1M ethanolamine hydrochloride (pH 8.5). The surface of the sensor chip was regenerated by injecting 5 μl 0.1M HCl. […] After each injection, the sensor chip surface was regenerated with the injection of 10 μl 0.1M HCl without loss of binding activity on the surface. The kinetic constants, ka and kd and the affinity constants KA and KD were evaluated using the BIAevaluations 3.0 software supplied by the manufacturer.
Affinity measurement in BIAcore: The kinetic and the affinity binding constants of the mouse 6A3-IgG1 mAb, 6A3-IgG4 mAb, and of the 6A3 derived monovalent Fab fragment to recombinant human NogoA were measured in real time using surface plasmon resonance (SPR) technology (Biacore). […]

Binder	Kd [nM]
B1	0.14
B2	1.1
